Where two headings read alike, the source gives them in different places.
Legend:
[1] = target: T1, recombinant human IL4Rα-his protein (human, UniProt P24394 26-232, biotinylated in the capture ELISA and the benchmark blocking ELISA); assay: SPR Biacore, mAb captured from supernatant, IL4Rα-his analyte
T1 construct: also called biotinylated human IL4Rα-his protein

[2] = target: T2, human IL4Rα on HEK293T-IL4Rα-STAT6-STAT6LUC-LB2 cells (human, UniProt P24394 26-825); assay: cell-based or functional assay
[3] = target: T2, human IL4Rα on …; assay: cell-based or functional assay; remark: listed apart in the source
[4] = target: T1, recombinant human IL4Rα-his protein; assay: SPR Biacore, mAb captured, IL4Rα-his analyte
Protocol: Briefly, a goat anti-human IgG (GE Healthcare, Cat. No. BR100839, Human Antibody Capture Kit) was covalently attached to a CMS chip (carboxymethylated dextran-coated chip) via the primary amine group using a standard amine coupling kit supplied by Biacore (GE Healthcare, Pittsburgh, PA, USA). Unreacted portions on the biosensor surface were blocked with ethanolamine. Then, the anti-IL4Rα antibody in the present disclosure at 66.67 nM and an anti-IL4Rα antibody benchmark (dupilumab, or DUPIXENT® or BM) at 10 μg/mL were directed through the chip at a flow rate of 10 μL/min. A recombinant human IL4Rα-his protein (prepared in-house, amino acid sequence set forth in SEQ ID NO: 15), a cynomolgus monkey IL4Rα-his protein (Sino Biological Inc., Cat. No. 90897-008H), or a marmoset monkey IL4Rα-his protein (customized product from Sino Biological Inc., denoted as cal-IL4Rα-his, amino acid sequence set forth in SEQ ID NO: 16) serially diluted with an HBS EP buffer (supplied by Biacore) was directed through the chip at a flow rate of 30 μIJmin. The antigen-antibody binding kinetics was tracked for 2 min and the dissociation kinetics was tracked for 10 min. The association and dissociation curves were fitted according to a 1:1 Langmuir binding model using BIA evaluation software, and the KD, Kₐ, and Kd values were determined.
According to the protocol in the examples above, the binding affinity of the humanized antibodies to human IL4Rα was assessed by the BIAcore technique, and the Kₐ, Kd, and KD values were determined and summarized in Table 3.

B1: Chimeric C2C1A1A1 (antibody, human IgG4 S228P, kappa, V domains shown)
VH: EVQLVESGGGLVQPGGSLKLSCAASGFTFSTYGMSWVRQTPDKRLELVATINSNGGSTSYPDSVKGRFTISRDNAKNTLYLQMSSLKSEDTAMFYCARFFRFRNAMDYWGQGTSVTVSS
VL: DIQMTQSPASLSASVGETVTITCRTSENIYSYLAWYQQKQGKSPQFLVYNAKTLAEGVPSRFSGSGSGTQFSLNINSLQSEDFGSYYCQHYYGPPTWTFGGGTKLEIKR
notes: Mouse variable regions on human IgG4 / kappa constant regions; also called chimeric antibody; Supernatant containing chimeric C2C1A1A1
[1]
  Kd: 0.111 nM
  koff: 4.04e-05 s⁻¹
[2]
  Inhibition of IL4-induced STAT6 phosphorylation (IC50, nM): 0.26 nM
  Inhibition of IL13-induced STAT6 phosphorylation (IC50, nM): 0.39 nM
[3]
  Inhibition of IL4-induced STAT6 phosphorylation (IC50, nM): 0.27 nM
  Inhibition of IL13-induced STAT6 phosphorylation (IC50, nM): 0.56 nM
[4]
  Dissociation (%): -1.94%
  End (RU): 65.8 RU
  Kd: < 0.0304 nM
  Start (RU): 67.1 RU
  koff: < 1e-05 s⁻¹

— patent US20240343815A1 (CHIA TAI TIANQING PHARMACEUTICAL GROUP, published 2024)
